This is an account of results in patent US20050054023A1 (BOARD OF SUPERVISORS OF LOUISIANA STATE UNIVERSITY AND …, published 2005).

The assay has as its target extracellular signal-regulated protein kinase 2 (purified, recombinant, activated ERK2). Nature of the assay: cell-based or functional assay.

Sequence of extracellular signal-regulated protein kinase 2 (purified, recombinant, activated ERK2) (P28482 2-360): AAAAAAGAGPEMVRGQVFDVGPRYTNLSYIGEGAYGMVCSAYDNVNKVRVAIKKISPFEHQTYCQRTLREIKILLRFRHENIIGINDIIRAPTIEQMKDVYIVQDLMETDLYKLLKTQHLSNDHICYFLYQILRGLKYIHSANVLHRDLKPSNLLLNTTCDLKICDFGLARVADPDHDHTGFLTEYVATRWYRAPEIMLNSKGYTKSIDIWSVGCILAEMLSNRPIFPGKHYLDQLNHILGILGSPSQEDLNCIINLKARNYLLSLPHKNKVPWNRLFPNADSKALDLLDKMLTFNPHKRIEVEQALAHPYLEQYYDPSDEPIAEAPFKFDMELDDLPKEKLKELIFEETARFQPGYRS

Turning to APRTPGGR [MBPtide (Thr97) …], the V/K came out at 23.

On to ATGPLSPFGRR [ERKtide], for which the V/K was determined as 136.

EAIMSPRFK [type 1 human TH-Ser31 peptide EAIMSPRFK]: the V/K is 28.

For KQAEAVTSPR [rat TH-Ser31 peptide KQAEAVTSPR], the V/K is 5.

Take YQAEAIMSPRFIGRRQ [type 1 human TH-Ser31 peptide YQAEAIMSPRFIGRRQ]: the V/K was 80.
